Data taken from the supplement of paper PMC10567573.
± gives the standard deviation.

Assay: protein stability index of a GFP-peptide fusion (GPS, HEK-293T) (PSI 1-6); higher = more stable
[1] = treatment: DMSO, c terminus: a fixed tail appended
[2] = treatment: MLN4924 1 uM, 8 h, c terminus: a fixed tail appended
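Further: 24-mer peptide tiles fused after GFP, lentivirally expressed, FACS-sorted into six equal bins by GFP/DsRed ratio, decoded by Illumina sequencing, PSI is the read-weighted mean bin number.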

Sequence | protein stability index [1] | protein stability index [2] | protein stability index (treatment: DMSO, c terminus: native) | protein stability index (treatment: MLN4924 1 uM, 8 h, c terminus: native)
NSQNEVNGWTCLHWACKRNHGQVV [ANKRD40] | 2.57 ± 0.24 | 2.65 ± 0.24 | – | –
NTCSVITTLKGHEGSVACLWWDPI [WDFY1] | 2.09 ± 0.39 | 2.34 ± 0.46 | – | –
NTEERQKRQVTHFQFLSWPDYGVP [PTPN9] | 3.17 ± 0.57 | 3.042 ± 0.028 | – | –
NTNVLSRDLIPPHVNFSHLTTKDY [SLC6A17] | 3.49 ± 0.37 | 3.87 ± 0.12 | – | –
NVNVTLLSKQAKFAYKDEYEKFKL [TMEM120A] | 2.9 ± 0.15 | 2.82 ± 0.23 | – | –
NVPVDDSLVKELLRMCSHGEGKIN [EFHC1] | 3.39 ± 0.2 | 3.55 ± 0.11 | – | –
NYGGVIKNYFQHREFSFTLKDDIY [PRIM1] | 2.13 ± 0.2 | 2.25 ± 0.08 | – | –
NYYRTWNVVVHDWLYYYAYKDFLW [SOAT1] | 3.73 ± 0.5 | 2.94 ± 0.34 | – | –
PADSFESPLTLAACGGHVELAALL [ANKRD17] | 2.87 ± 0.32 | 3.14 ± 0.28 | – | –
PEEVKSLDSNGAGEKSENNSSNSD [BCL2L13] | 5.84 ± 0.15 | 5.6 ± 0.23 | – | –
PENLLLASKSKGAAVKLADFGLAI [CAMK2D] | 2.53 ± 0.38 | 2.13 ± 0.18 | – | –
PEPPAAVDFLEPDSGTCPEVDEEG [FCHO1] | 5.48 ± 0.26 | 5.54 ± 0.21 | – | –
PFGESNGNGVHVCNVKYKRWALLS [KLHDC10] | 2.08 ± 0.22 | 2.26 ± 0.33 | – | –
PGARGLWKPPDIKGKLMVCYETLP [SPAG8] | 2.56 ± 0.26 | 2.51 ± 0.16 | – | –
PGASTEEVKRAFFSKSKELHPDRD [DNAJC4] | 5.12 ± 0.28 | 5.18 ± 0.079 | – | –
PGGGDICMYRHALPPGFVLKKDKK [ZC3H15] | 4.29 ± 0.2 | 4.04 ± 0.1 | – | –
PGNLEKNRYGDVPCLDQTRVKLTK [PTPN9] | – | 4.32 ± 0.72 | – | –
PHIYGARIKGVEVFCPLDPPPPYE [FAM189A2] | 2.96 ± 0.17 | 3.04 ± 0.19 | – | –
PIDPAAWVSHTAAMTGTFPAYGMS [DVL3] | 2.73 ± 0.36 | 2.75 ± 0.18 | – | –
PIFMRKDTKMSFQWRIRNLPYPKD [DPCD] | 2.27 ± 0.27 | 2.22 ± 0.069 | – | –
PKAQLSGYAVEATRNQSQLQRFL [FBF1] | – | – | 4.13 ± 0.19 | 4.21 ± 0.38
PKDIMTNTHAKSILNSMNSLRKSN [KLHL12] | 3.48 ± 0.099 | 3.73 ± 0.34 | – | –

Sequence | protein stability index [1] | protein stability index [2] | protein stability index (treatment: DMSO, c terminus: native) | protein stability index (treatment: MLN4924 1 uM, 8 h, c terminus: native)
PKKEANQAPKSKSGSRPRKPPPRK [LRRC59] | 4.92 ± 0.21 | 5 ± 0.18 | – | –
PKPDRLLVLKVLWNDFLMCYSSRP [SLC19A2] | 2.89 ± 0.2 | 3.08 ± 0.46 | – | –
PLVALDTDSDDDFDMSRYSSSGYS [FAM219A] | 4.59 ± 0.52 | 4.76 ± 0.38 | – | –
PLVTPPQSPVSPQPPAITQVHRQG [SMTNL2] | 4.56 ± 0.35 | 4.58 ± 0.053 | – | –
PMVNHAEASRLNIERMKQIYQQLS [CRY1] | 2.81 ± 0.34 | 2.77 ± 0.25 | – | –
PNFNFNISHQGDYAVLAAEPELQV [AASDHPPT] | 4 ± 0.09 | 3.93 ± 0.39 | – | –
PNGLEAAYEFADRDEVRFFKGNKY [MMP1] | 3.74 ± 0.44 | 3.83 ± 0.3 | – | –
PPHYFFTYRIRIEMSKDALPEKAC [FBXO3] | 2.47 ± 0.48 | 2.17 ± 0.23 | – | –
PPVSQSRSLFSSVPSKPPMSLEPQ [ANKRD40] | 4.53 ± 0.11 | 4.68 ± 0.4 | – | –
PQAPAPATATDTFEAAPPAPAPAP [CEBPB] | 5.28 ± 0.51 | 5.38 ± 0.35 | – | –
PQEAAGAQGRAGAPVPEPPKEEQQ [EPB41L3] | 5.2 ± 0.45 | 5.75 ± 0.26 | – | –
PQGSGFCLGQLNLEQRSESVRRTR [SMAD6] | 4.39 ± 0.26 | 4.67 ± 0.43 | – | –
PQPHRNRAGLDLPTIDTGYDSQPQ [TRAF3IP2] | 4.58 ± 0.2 | 4.76 ± 0.19 | – | –
PQYRSYFMECLVDARMLDHLTKKD [PPFIA4] | 2.7 ± 0.2 | 2.58 ± 0.17 | – | –
PRARRRLGSGPDRELRKPEEPENG [PWWP2B] | 5.43 ± 0.14 | 5.42 ± 0.2 | – | –
PREALSRLQELCHGWLRPEMRTKE [ZNF263] | 3.31 ± 0.23 | 3.55 ± 0.28 | – | –
PRFHMACPTFRVSIARLEMGPDEY [FBXO3] | 2.82 ± 0.21 | 2.72 ± 0.24 | – | –
PRGRRISVICRSLPEGMGPGESGQ [ALKBH7] | 3.69 ± 0.11 | 3.95 ± 0.37 | – | –
PRIIKAAPSCAIMISTYEFGKSFF [SLC25A39] | 2.56 ± 0.49 | 2.28 ± 0.32 | – | –
PRSGEQAEGSPGGPGDSQGRKRRQ [CDKN1A] | 5.56 ± 0.16 | 5.48 ± 0.27 | – | –
PSHGSLSHSKAPSGSQMSHNAVTS [NCF4] | 4.55 ± 0.1 | 4.83 ± 0.37 | – | –
PSHHPTDPVELRRLNFQTPGMASH [PTPRD] | 3.79 ± 0.13 | 3.94 ± 0.34 | – | –

Sequence | protein stability index [1] | protein stability index [2] | protein stability index (treatment: DMSO, c terminus: native) | protein stability index (treatment: MLN4924 1 uM, 8 h, c terminus: native)
PSHLLLPPDTVSRTGLEKAAAGAV [SPDEF] | 4.22 ± 0.33 | 4.26 ± 0.35 | – | –
PSLEDLFDLCDRTFSLKTVLMIAI [CSNK1G3] | 2.5 ± 0.42 | 2.38 ± 0.43 | – | –
PSRYAAIYNGGVEAVSTLLGAVAV [SLC19A2] | 2.28 ± 0.15 | 2.06 ± 0.37 | – | –
PTEGQGSLLTNWPSVPPTIKEEEN [MYBL2] | 5.46 ± 0.23 | 5.42 ± 0.18 | – | –
PTGDVLLDEALKHVKETQPPETVQ [GOLPH3] | 5.32 ± 0.1 | 5.21 ± 0.1 | – | –
PWAVDPAFAERYAPDKTSTVLTRH [PDLIM7] | 3.57 ± 0.24 | 3.56 ± 0.25 | – | –
PYHVDSLLQLSDACRFQEDQEMAR [TCF25] | 4.36 ± 0.17 | 4.04 ± 0.21 | – | –
PYKKPYMETSPSEEDSFYRSSYPQ [TBX5] | 3.91 ± 0.47 | 3.65 ± 0.41 | – | –
QADLELDYNPPRVQLSDEMFVFQD [CBY2] | 4.65 ± 0.28 | 4.83 ± 0.21 | – | –
QADLLAHLVPEPDRLEEQLPWLSL [DNAAF3] | 2.34 ± 0.25 | 2.48 ± 0.28 | – | –
QARLLNPSATRAKPGPQDTVERPF [NOP53] | 4.78 ± 0.24 | 4.85 ± 0.14 | – | –
QCPEPPIVVHCSAGIGRTGTFCSL [PTPN9] | 2.17 ± 0.26 | 2.14 ± 0.12 | – | –
QDKSESLSDNATAFSNRSKQLRRQ [VAMP4] | 5.36 ± 0.4 | 5.17 ± 0.21 | – | –
QEELTRINQSFTGAERKAALCELL [IQUB] | 3.41 ± 0.28 | 3.63 ± 0.17 | – | –
QEKKILELEKLAEKNIILEEKIQV [MTUS2] | 4.3 ± 0.28 | 4.29 ± 0.17 | – | –
QELSEVLELLSAPELKSLAKTFHL [FAN1] | 2.26 ± 0.46 | 2.25 ± 0.14 | – | –
QEQLSLSQRQAKELKLEQQEAAER [LRRC45] | 5.5 ± 0.19 | 5.67 ± 0.22 | – | –
QFILRVSPDLEWHAACLKCAECSQ [ISL2] | 2.16 ± 0.34 | 2.19 ± 0.34 | – | –
QGFRTVLELVINYQQLCIYWTKYY [OAS1] | 2.96 ± 0.33 | 2.79 ± 0.51 | – | –
QGLIGSVEEQLAQLRCEMEQQNQE [KRT17] | 5.3 ± 0.36 | 5.29 ± 0.34 | – | –
QGLKLYAVEISDHPGEHEVGEPEF [CPXM2] | 4.5 ± 0.55 | 5.11 ± 0.06 | – | –
